Laboratory results as given in US20180155451A1 (published 2018).

T1: FcγRIIb (human, UniProt P31994 43-217)
T1 construct: extracellular domain; also called FcgRIIb; 2b
T1 sequence (looked up): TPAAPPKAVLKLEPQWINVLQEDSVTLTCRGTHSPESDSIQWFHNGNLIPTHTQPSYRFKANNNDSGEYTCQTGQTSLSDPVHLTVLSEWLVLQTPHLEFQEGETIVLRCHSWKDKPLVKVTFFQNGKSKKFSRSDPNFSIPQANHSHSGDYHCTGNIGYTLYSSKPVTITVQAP

T2: FcγRIIb extracellular domain with C-terminal His tag (human, UniProt P31994 43-217)
T2 construct: extracellular domain; also called 2b; FcgRIIb
T2 sequence (looked up): T1 sequence (looked up)

T3: FcγRIIb extracellular domain with C-terminal His tag (human, UniProt P31994 43-217)
T3 construct: extracellular domain; also called FcgRIIb; 2b; not shown: His tag at the C terminus
T3 sequence (looked up): T1 sequence (looked up)

T4: FcγRIIa R (FcγRIIa, allotype R: Arg at position 131) extracellular domain with C-terminal His tag (human, UniProt P12318 34-217)
T4 construct: extracellular domain; also called FcgRIIa R; 2aR; not shown: His tag at the C terminus
T4 sequence (looked up): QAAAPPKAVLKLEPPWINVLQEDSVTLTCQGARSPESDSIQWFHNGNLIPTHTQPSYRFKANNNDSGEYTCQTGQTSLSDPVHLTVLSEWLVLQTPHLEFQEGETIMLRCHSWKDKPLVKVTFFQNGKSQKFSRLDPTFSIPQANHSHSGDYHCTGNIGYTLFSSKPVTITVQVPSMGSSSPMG

B1: GpH7-A5/GpH7-B3 variant I336_04F/GpL16-k0 (antibody, human IgG1, kappa)
heavy 1: not shown
heavy 2: not shown
light: DIVMTQSPLSLPVTPGEPASISCQASESLVHSNRNTYLHWYLQKPGQSPQLLIYKVSNRFSGVPDRFSGSGSGTDFTLKISRVEAEDVGVYYCSQNTHVPPTFGQGTKVEIERTVAAPSVFIFPPSDEQLKSGTASVVCLLNNFYPREAKVQWKVDNALQSGNSQESVTEQDSKDSTYSLSSTLTLSKADYEKHKVYACEVTHQGLSSPVTKSFNRGEC
notes: heterodimerized IgG1, one H chain mutated; also called He Ab
B2: GpH7-A5/GpH7-B3 variant S337_12R/GpL16-k0 (antibody, human IgG1, kappa)
heavy 1: not shown
heavy 2: not shown
light: B1 light
notes: as for B1
B3: GpH7-A5/GpH7-B3 variant S324_14T/GpL16-k0 (antibody, human IgG1, kappa)
heavy 1: not shown
heavy 2: not shown
light: B1 light
notes: He Ab: alteration in one H chain only; also called He Ab
B4: GpH7-A5/GpH7-B3 variant S324_15Y/GpL16-k0 (antibody, human IgG1, kappa)
heavy 1: not shown
heavy 2: not shown
light: B1 light
notes: as for B3
B5: GpH7-A5/GpH7-B3 variant H268_12R/GpL16-k0 (antibody, human IgG1, kappa)
heavy 1: not shown
heavy 2: not shown
light: B1 light
notes: He Ab: alteration in the GpH7-B3 H chain only; also called He Ab
B6: GpH7-A5/GpH7-B3 variant S324_16H/GpL16-k0 (antibody, human IgG1, kappa)
heavy 1: not shown
heavy 2: not shown
light: B1 light
notes: as for B3
B7: GpH7-A5/GpH7-B3 variant I336_09D/GpL16-k0 (antibody, human IgG1, kappa)
heavy 1: not shown
heavy 2: not shown
light: B1 light
notes: as for B1
B8: GpH7-A5/GpH7-B3 variant I336_16H/GpL16-k0 (antibody, human IgG1, kappa)
heavy 1: not shown
heavy 2: not shown
light: B1 light
notes: as for B1
B9: GpH7-A5/GpH7-B3 variant S337_04F/GpL16-k0 (antibody, human IgG1, kappa)
heavy 1: not shown
heavy 2: not shown
light: B1 light
notes: as for B1
B10: GpH7-A5/GpH7-B3 variant A330_15Y/GpL16-k0 (antibody, human IgG1, kappa)
heavy 1: not shown
heavy 2: not shown
light: B1 light
notes: as for B5
B11: GpH7-A5/GpH7-B3 variant L234_04F/GpL16-k0 (antibody, human IgG1, kappa)
heavy 1: not shown
heavy 2: not shown
light: B1 light
notes: as for B5
B12: GpH7-A5/GpH7-B3 variant I336_19Q/GpL16-k0 (antibody, human IgG1, kappa)
heavy 1: not shown
heavy 2: not shown
light: B1 light
notes: as for B1
B13: GpH7-A5/GpH7-B3 variant Y300_08L/GpL16-k0 (antibody, human IgG1, kappa)
heavy 1: not shown
heavy 2: not shown
light: B1 light
notes: as for B3
B14: GpH7-A5/GpH7-B3 variant S337_11K/GpL16-k0 (antibody, human IgG1, kappa)
heavy 1: not shown
heavy 2: not shown
light: B1 light
notes: as for B1
B15: GpH7-A5/GpH7-B3 variant A330_11K/GpL16-k0 (antibody, human IgG1, kappa)
heavy 1: not shown
heavy 2: not shown
light: B1 light
notes: as for B5
B16: GpH7-A5/GpH7-B3 variant S337_19Q/GpL16-k0 (antibody, human IgG1, kappa)
heavy 1: not shown
heavy 2: not shown
light: B1 light
notes: as for B1
B17: GpH7-A5/GpH7-B3 variant I336_12R/GpL16-k0 (antibody, human IgG1, kappa)
heavy 1: not shown
heavy 2: not shown
light: B1 light
notes: as for B1
B18: GpH7-A5/GpH7-B3 variant S324_09D/GpL16-k0 (antibody, human IgG1, kappa)
heavy 1: not shown
heavy 2: not shown
light: B1 light
notes: as for B3
B19: GpH7-A5/GpH7-B3 variant I336_15Y/GpL16-k0 (antibody, human IgG1, kappa)
heavy 1: not shown
heavy 2: not shown
light: B1 light
notes: as for B1
B20: GpH7-A5/GpH7-B3 variant S337_02A/GpL16-k0 (antibody, human IgG1, kappa)
heavy 1: not shown
heavy 2: not shown
light: B1 light
notes: as for B1
B21: GpH7-A5/GpH7-B3 variant I336_10E/GpL16-k0 (antibody, human IgG1, kappa)
heavy 1: not shown
heavy 2: not shown
light: B1 light
notes: as for B1
B22: GpH7-A5/GpH7-B3 variant S324_02A/GpL16-k0 (antibody, human IgG1, kappa)
heavy 1: not shown
heavy 2: not shown
light: B1 light
notes: as for B3
B23: GpH7-A5/GpH7-B3 variant A330_19Q/GpL16-k0 (antibody, human IgG1, kappa)
heavy 1: not shown
heavy 2: not shown
light: B1 light
notes: as for B5
B24: GpH7-A5/GpH7-B3 variant S337_06M/GpL16-k0 (antibody, human IgG1, kappa)
heavy 1: not shown
heavy 2: not shown
light: B1 light
notes: as for B1
B25: GpH7-A5/GpH7-B3 variant S337_01G/GpL16-k0 (antibody, human IgG1, kappa)
heavy 1: not shown
heavy 2: not shown
light: B1 light
notes: as for B1
B26: GpH7-A5/GpH7-B3 variant E333_04F/GpL16-k0 (antibody, human IgG1, kappa)
heavy 1: not shown
heavy 2: not shown
light: B1 light
notes: as for B5
B27: GpH7-A5/GpH7-B3 variant I336_18N/GpL16-k0 (antibody, human IgG1, kappa)
heavy 1: not shown
heavy 2: not shown
light: B1 light
notes: as for B1
B28: GpH7-A5/GpH7-B3 variant I336_11K/GpL16-k0 (antibody, human IgG1, kappa)
heavy 1: not shown
heavy 2: not shown
light: B1 light
notes: as for B1
B29: GpH7-A5/GpH7-B3 variant I336_14T/GpL16-k0 (antibody, human IgG1, kappa)
heavy 1: not shown
heavy 2: not shown
light: B1 light
notes: as for B1
B30: GpH7-A5/GpH7-B3 variant E333_05P/GpL16-k0 (antibody, human IgG1, kappa)
heavy 1: not shown
heavy 2: not shown
light: B1 light
notes: as for B5
B31: GpH7-A5/GpH7-B3 variant I336_13S/GpL16-k0 (antibody, human IgG1, kappa)
heavy 1: not shown
heavy 2: not shown
light: B1 light
notes: as for B1
B32: GpH7-A5/GpH7-B3 variant H268_11K/GpL16-k0 (antibody, human IgG1, kappa)
heavy 1: not shown
heavy 2: not shown
light: B1 light
notes: as for B5
B33: GpH7-A5/GpH7-B3 variant K326_12R/GpL16-k0 (antibody, human IgG1, kappa)
heavy 1: not shown
heavy 2: not shown
light: B1 light
notes: as for B5
B34: GpH7-A5/GpH7-B3 variant S324_20W/GpL16-k0 (antibody, human IgG1, kappa)
heavy 1: not shown
heavy 2: not shown
light: B1 light
notes: as for B3
B35: GpH7-A5/GpH7-B3 variant S337_03V/GpL16-k0 (antibody, human IgG1, kappa)
heavy 1: not shown
heavy 2: not shown
light: B1 light
notes: as for B1
B36: GpH7-A5/GpH7-B3 variant A330_12R/GpL16-k0 (antibody, human IgG1, kappa)
heavy 1: not shown
heavy 2: not shown
light: B1 light
notes: as for B5

Columns and labels:
FcγRIIb = target: T1, FcγRIIb; assay: SPR (Biacore), relative to GpH7-A5/GpH7-B3/GpL16-k0 = 100
Protocol: (§1) The heterodimerized antibodies He Abs in which one of the H chains was introduced with an alteration were assayed for their binding activities to each activating FcγR and inhibitory FcγR according to the method described in Example 4. […] The activating FcγRs in FIGS. 26, 27, 28, and 29 are FcγRIa, FcγRIIa (R), FcγRIIa (H), and FcγRIIIa, respectively.
(§2) Analysis of interaction between objective antibody and the FcγR was carried out using Biacore T100 (GE Healthcare). HBS-EP+ (GE Healthcare) was used as the running buffer, and the measurement temperature was set to 25° C. Chips produced by immobilizing the antigen peptide by the amine coupling method to a Series S Sencor Chip CM5 (GE Healthcare), or alternatively, chips produced by allowing preliminarily biotinylated antigen peptides to interact with and immobilize onto a Series S Sensor Chip SA (certified) (GE Healthcare) were used. Antibodies of interest were captured onto an antigen peptide-immobilized chip, and allowed to interact to each FcγR diluted with running buffer. To regenerate and repeatedly use the chip, the antibodies captured on the chip were washed off by reacting 10 mM glycine-HCl, pH 1.5.

FcγRIa = target: T5, FcγRIa (human, UniProt P12314 16-292); assay: as above
T5 construct: extracellular domain; also called FcgRI; FcgRIa
Protocol: as §1, §2

[1] = target: T6, FcγRIIIa extracellular domain with C-terminal His tag (human, UniProt P08637 17-208); assay: SPR, relative to GpH7-A5/GpH7-B3/GpL16-k0
T6 construct: extracellular domain; also called 3a; FcgRIIIa
Protocol: as §1, §2

[2] = target: T2, FcγRIIb extracellular domain with …; assay: SPR, relative to GpH7-A5/GpH7-B3/GpL16-k0
Protocol: as §1, §2

[3] = target: T3, FcγRIIb extracellular domain with …; assay: SPR Biacore, antibody captured, FcgR analyte; vs HeCon Ab GpH7-A5/GpH7-B3/GpL16-k0 = 100
Protocol: as §1, §2

[4] = target: T4, FcγRIIa R (FcγRIIa, allotype R: Arg at …); assay: as above
Protocol: as §1, §2

T6 sequence (P08637 17-208): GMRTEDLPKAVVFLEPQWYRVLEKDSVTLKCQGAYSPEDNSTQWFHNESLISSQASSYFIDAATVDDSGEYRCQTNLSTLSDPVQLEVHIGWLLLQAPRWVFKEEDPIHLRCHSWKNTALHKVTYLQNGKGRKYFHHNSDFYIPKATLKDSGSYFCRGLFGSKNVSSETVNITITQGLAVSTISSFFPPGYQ
T5 sequence (P12314 16-292): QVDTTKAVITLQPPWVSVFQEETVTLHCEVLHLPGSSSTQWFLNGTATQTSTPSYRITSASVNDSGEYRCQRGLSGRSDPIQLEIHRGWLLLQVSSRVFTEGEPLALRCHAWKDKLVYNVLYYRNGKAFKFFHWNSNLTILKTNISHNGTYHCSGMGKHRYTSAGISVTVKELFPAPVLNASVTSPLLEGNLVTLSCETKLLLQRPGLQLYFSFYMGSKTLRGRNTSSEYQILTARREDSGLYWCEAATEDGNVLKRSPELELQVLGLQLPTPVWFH

Binder	He/Con_2b (IIb binding) (FcγRIIb)	He/Con_1a (Ia binding) (FcγRIa)	other results
B1	91.2 relative (control = 100)	106 relative (control = 100)	
B2	99.5 relative (control = 100)	106 relative (control = 100)	
B3			He/Con_3a [1]: 103 control=100; He/Con_2b [2]: 88.4 control=100
B4			He/Con_3a [1]: 101 control=100; He/Con_2b [2]: 88.2 control=100
B5			He/Con_2b [3]: 89.8 control = 100; He/Con_2aR [4]: 105 control = 100
B6			He/Con_3a [1]: 104 control=100; He/Con_2b [2]: 83.5 control=100
B7	92.1 relative (control = 100)	104 relative (control = 100)	
B8	85.8 relative (control = 100)	101 relative (control = 100)	
B9	97.8 relative (control = 100)	106 relative (control = 100)	
B10			He/Con_2b [3]: 95 control = 100; He/Con_2aR [4]: 102 control = 100
B11			He/Con_2b [3]: 99.8 control = 100; He/Con_2aR [4]: 104 control = 100
B12	58.2 relative (control = 100)	104 relative (control = 100)	
B13			He/Con_3a [1]: 105 control=100; He/Con_2b [2]: 73.6 control=100
B14	94.3 relative (control = 100)	104 relative (control = 100)	
B15			He/Con_2b [3]: 95 control = 100; He/Con_2aR [4]: 110 control = 100
B16	99.7 relative (control = 100)	105 relative (control = 100)	
B17	92.1 relative (control = 100)	102 relative (control = 100)	
B18			He/Con_3a [1]: 101 control=100; He/Con_2b [2]: 85.8 control=100

Binder	He/Con_2b (IIb binding) (FcγRIIb)	He/Con_1a (Ia binding) (FcγRIa)	other results
B19	68.2 relative (control = 100)	103 relative (control = 100)	
B20	97.2 relative (control = 100)	106 relative (control = 100)	
B21	89.8 relative (control = 100)	108 relative (control = 100)	
B22			He/Con_3a [1]: 104 control=100; He/Con_2b [2]: 78.3 control=100
B23			He/Con_2b [3]: 90.8 control = 100; He/Con_2aR [4]: 104 control = 100
B24	96.7 relative (control = 100)	107 relative (control = 100)	
B25	92 relative (control = 100)	107 relative (control = 100)	
B26			He/Con_2b [3]: 94.6 control = 100; He/Con_2aR [4]: 102 control = 100
B27	97.6 relative (control = 100)	108 relative (control = 100)	
B28	90.3 relative (control = 100)	105 relative (control = 100)	
B29	89.5 relative (control = 100)	104 relative (control = 100)	
B30			He/Con_2b [3]: 97.7 control = 100; He/Con_2aR [4]: 105 control = 100
B31	83.7 relative (control = 100)	102 relative (control = 100)	
B32			He/Con_2b [3]: 83 control = 100; He/Con_2aR [4]: 100 control = 100
B33			He/Con_2b [3]: 89.2 control = 100; He/Con_2aR [4]: 103 control = 100
B34			He/Con_3a [1]: 102 control=100; He/Con_2b [2]: 87.5 control=100
B35	98.9 relative (control = 100)	107 relative (control = 100)	
B36			He/Con_2b [3]: 84.8 control = 100; He/Con_2aR [4]: 104 control = 100
